IntAct's records for PubMed 21525010

B1: Invasin IpaA (Shigella flexneri), P18010 (parent)
chain: MHNVNNTQAPTFLYKATSPSSTEYSELKSKISDIHSSQTSLKTPASVSEKENFATSFNQKCLDFLFSSSGKEDVLRSIYSNSMNAYAKSEILEFSNVLYSLVHQNGLNFENEKGLQKIVAQYSELIIKDKLSQDSAFGPWSAKNKKLHQLRQNIEHRLALLAQQHTSGEALSLGQKLLNTEVSSFIKNNILAELKLSNETVSSLKLDDLVDAQAKLAFDSLRNQRKNTIDSKGFGIGKLSRDLNTVAVFPELLRKVLNDILEDIKDSHPIQDGLPTPPEDMPDGGPTPGANEKTSQPVIHYHINNDNRTYDNRVFDNRVYDNSYHENPENDAQSPTSQTNDLLSRNGNSLLNPQRALVQKVTSVLPHSISDTVQTFANNSALEKVFNHTPDNSDGIGSDLLTTSSQERSANNSLSRGHRPLNIQNSSTTPPLHPEGVTSSNDNSSDTTKSSASLSHRVASQINKFNSNTDSKVLQTDFLSRNGDTYLTRETIFEASKKVTNSLSNLISLIGTKSGTQERELQEKSKDITKSTTEHRINNKLKVTDANIRNYVTETNADTIDKNHAIYEKAKEVSSALSKVLSKIDDTSAELLTDDISDLKNNNDITAENNNIYKAAKDVTTSLSKVLKNINKD

Variants of: B1
Conditions: with vinc_human VCL

Q: A495K was tested. Which “effect of a mutation on the interaction” value did it give?
A: decreasing interaction

Variants of: B1
Conditions: with vinc_human VCL
Remark: another data set of the same source

Q: For V499E;L503Q, which “effect of a mutation on the interaction” value is on record?
A: disrupting interaction
